This is an account of results in paper PMC3773608 (Journal of molecular neuroscience : MN, 2009).

This assay has as its target GST-PSD-95 (rat, UniProt P31016 1-724). Nature of the assay: co-IP.

GST-PSD-95, sequence (P31016 whole entry): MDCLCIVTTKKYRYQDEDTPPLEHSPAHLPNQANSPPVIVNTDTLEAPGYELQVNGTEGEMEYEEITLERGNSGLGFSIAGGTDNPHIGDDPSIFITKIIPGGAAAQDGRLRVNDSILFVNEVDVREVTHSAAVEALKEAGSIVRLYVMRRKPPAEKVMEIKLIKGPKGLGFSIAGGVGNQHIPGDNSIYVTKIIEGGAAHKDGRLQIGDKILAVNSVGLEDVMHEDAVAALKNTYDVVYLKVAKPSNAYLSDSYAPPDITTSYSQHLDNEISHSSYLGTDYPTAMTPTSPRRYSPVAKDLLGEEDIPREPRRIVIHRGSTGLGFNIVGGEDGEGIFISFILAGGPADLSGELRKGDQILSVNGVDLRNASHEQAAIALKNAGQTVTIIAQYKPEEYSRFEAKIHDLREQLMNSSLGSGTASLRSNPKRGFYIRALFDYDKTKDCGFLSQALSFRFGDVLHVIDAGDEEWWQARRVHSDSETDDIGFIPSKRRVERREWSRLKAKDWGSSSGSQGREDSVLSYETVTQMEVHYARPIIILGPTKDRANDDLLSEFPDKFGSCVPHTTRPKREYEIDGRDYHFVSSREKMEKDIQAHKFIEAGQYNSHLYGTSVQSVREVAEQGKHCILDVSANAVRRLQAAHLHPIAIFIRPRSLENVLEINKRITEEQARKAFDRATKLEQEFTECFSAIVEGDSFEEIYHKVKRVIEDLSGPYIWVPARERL

B1: GST-ILK (enzyme, rat, UniProt Q99J82 1-452, looked up)
chain: MDDIFTQCREGNAVAVRLWLDNTENDLNQGDDHGFSPLHWACREGRSAVVEMLIMRGARINVMNRGDDTPLHLAASHGHRDIVQKLLQYKADINAVNEHGNVPLHYACFWGQDQVAEDLVANGALVSICNKYGEMPVDKAKAPLRELLRERAEKMGQNLNRIPYKDTFWKGTTRTRPRNGTLNKHSGIDFKQLNFLAKLNENHSGELWKGRWQGNDIVVKVLKVRDWSTRKSRDFNEECPRLRIFSHPNVLPVLGACQAPPAPHPTLITHWMPYGSLYNVLHEGTNFVVDQSQAVKFALDMARGMAFLHTLEPLIPRHALNSRSVMIDEDMTARISMADVKFSFQCPGRMYAPAWVAPEALQKKPEDTNRRSADMWSFAVLLWELVTREVPFADLSNMEIGMKVALEGLRPTIPPGISPHVCKLMKICMNEDPAKRPKFDMIVPILEKMQDK
For B1, the binding result is “binds”.
